In this assay the target is M6P receptor (M6PR) (human). Kind of assay: cell-based or functional assay.

As for “Agalsidase beta (Genzyme, Fabrazyme) (from UniProt P06280 32-429)”, the intracellular α-gal A activity of Fabry patient fibroblasts after 18 hours incubation with 10 µg/ml enzyme (fold of untreated cells) amounted to 134 fold.

These data come from patent US20220380791A1.
